Measured values taken from US20240124553A1 (WASHINGTON UNIVERSITY, published 2024).

What was measured:
Experiment in all cases: flow cytometry, transfected 293T cells
[1] = molecular target: T1, CHIKV E2-E1 envelope glycoproteins (strain S27), E2 mutant D132A (chikungunya virus strain S27, UniProt Q8JUX5 1-1248; Q8JUX5 810-1248)
T1 construct: whole, on cells; E2 domain A

[2] = molecular target: T2, CHIKV E2-E1 envelope glycoproteins (strain S27), E2 mutant R36A (chikungunya virus strain S27, UniProt Q8JUX5 1-1248; Q8JUX5 810-1248)
T2 construct: whole, on cells; E2 domain A

[3] = molecular target: T3, CHIKV E2-E1 envelope glycoproteins (strain S27), E2 mutant K66A (chikungunya virus strain S27, UniProt Q8JUX5 1-1248; Q8JUX5 810-1248)
T3 construct: whole, on cells; E2 domain A

[4] = molecular target: T4, CHIKV E2-E1 envelope glycoproteins (strain S27), E2 mutant A76S (chikungunya virus strain S27, UniProt Q8JUX5 1-1248; Q8JUX5 810-1248)
T4 construct: whole, on cells; E2 domain A

[5] = molecular target: T5, CHIKV E2-E1 envelope glycoproteins (strain S27), E2 mutant R104A (chikungunya virus strain S27, UniProt Q8JUX5 1-1248; Q8JUX5 810-1248)
T5 construct: whole, on cells; E2 domain A

[6] = molecular target: T6, CHIKV E2-E1 envelope glycoproteins (strain S27), E2 mutant F115A (chikungunya virus strain S27, UniProt Q8JUX5 1-1248; Q8JUX5 810-1248)
T6 construct: whole, on cells; E2 domain A

[7] = molecular target: T7, CHIKV E2-6K-E1 envelope proteins (strain S27) with E2 I217A (Chikungunya virus strain S27, UniProt Q8JUX5 1-1248; Q8JUX5 810-1248)
T7 construct: whole, on cells

B1: Mxra8-Fc (mouse Mxra8 extracellular domain fused to mouse IgG2b Fc) (Fc fusion)
chain: SGPSGTAAASSSLVSESVVSLAAGTQAVLRCQSPRMVWTQDRLHDRQRVVHWDLSGGPGSQRRRLVDMYSAGEQRVYEPRDRDRLLLSPSAFHDGNFSLLIRAVDRGDEGVYTCNLHHHYCHLDESLAVRLEVTEDPLLSRAYWDGEKEVLVVAHGAPALMTCINRAHVWTDRHLEEAQQVVHWDRQLPGVSHDRADRLLDLYASGERRAYGPPFLRDRVSVNTNAFARGDFSLRIDELERADEGIYSCHLHHHYCGLHERRVFHLQVTEPAFEPPARASPGNGSGHSSAPSPDPTLTRGHSIINVIVPEDHTHPSGPISTINPCPPCKECHKCPAPNLEGGPSVFIFPPNIKDVLMISLTPKVTCVVVDVSEDDPDVQISWFVNNVEVHTAQTQTHREDYNSTIRVVSTLPIQHQDWMSGKEFKCKVNNKDLPSPIERTISKIKGLVRAPQVYILPPPAEQLSRKDVSLTCLVVGFNPGDISVEWTSNGHTEENYKDTAPVLDSDGSYFIYSKLNMKTSKWEKTDSFSCNVRHEGLKNYYLKKTISRSPGK
Binding Reactivity (% WT) [1]: 105 % WT | Binding Reactivity (% WT) [2]: 68.3 % WT | Binding Reactivity (% WT) [3]: 93.1 % WT | Binding Reactivity (% WT) [4]: 85 % WT | Binding Reactivity (% WT) [5]: 49.9 % WT | Binding Reactivity (% WT) [6]: 3.3 % WT

B2: Mxra8-Fc (mouse Mxra8 extracellular domain fused to mouse IgG2b Fc) (Fc fusion)
chain: SGPSGTAAASSSLVSESVVSLAAGTQAVLRCQSPRMVWTQDRLHDRQRVVHWDLSGGPGSQRRRLVDMYSAGEQRVYEPRDRDRLLLSPSAFHDGNFSLLIRAVDRGDEGVYTCNLHHHYCHLDESLAVRLEVTEDPLLSRAYWDGEKEVLVVAHGAPALMTCINRAHVWTDRHLEEAQQVVHWDRQLPGVSHDRADRLLDLYASGERRAYGPPFLRDRVSVNTNAFARGDFSLRIDELERADEGIYSCHLHHHYCGLHERRVFHLQVTEPAFEPPARASPGNGSGHSSAPSPDPTLTRGHSIINVIVPEDHTHPSGPISTINPCPPCKECHKCPAPNLEGGPSVFIFPPNIKDVLMISLTPKVTCVVVDVSEDDPDVQISWFVNNVEVHTAQTQTHREDYNSTIRVVSTLPIQHQDWMSGKEFKCKVNNKDLPSPIERTISKIKGLVRAPQVYILPPPAEQLSRKDVSLTCLVVGFNPGDISVEWTSNGHTEENYKDTAPVLDSDGSYFIYSKLNMKTSKWEKTDSFSCNVRHEGLKNYYLKKTISRSPGK
Binding Reactivity (% WT) [7]: 12.3 % WT
